In assay [1] the target is T1, Cynomolgus GUCY2C full length on 300.19 cells (cynomolgus, UniProt P25092 24-1073 (human entry)).
T1 construct: also called cyno GUCY2c
T1 chain: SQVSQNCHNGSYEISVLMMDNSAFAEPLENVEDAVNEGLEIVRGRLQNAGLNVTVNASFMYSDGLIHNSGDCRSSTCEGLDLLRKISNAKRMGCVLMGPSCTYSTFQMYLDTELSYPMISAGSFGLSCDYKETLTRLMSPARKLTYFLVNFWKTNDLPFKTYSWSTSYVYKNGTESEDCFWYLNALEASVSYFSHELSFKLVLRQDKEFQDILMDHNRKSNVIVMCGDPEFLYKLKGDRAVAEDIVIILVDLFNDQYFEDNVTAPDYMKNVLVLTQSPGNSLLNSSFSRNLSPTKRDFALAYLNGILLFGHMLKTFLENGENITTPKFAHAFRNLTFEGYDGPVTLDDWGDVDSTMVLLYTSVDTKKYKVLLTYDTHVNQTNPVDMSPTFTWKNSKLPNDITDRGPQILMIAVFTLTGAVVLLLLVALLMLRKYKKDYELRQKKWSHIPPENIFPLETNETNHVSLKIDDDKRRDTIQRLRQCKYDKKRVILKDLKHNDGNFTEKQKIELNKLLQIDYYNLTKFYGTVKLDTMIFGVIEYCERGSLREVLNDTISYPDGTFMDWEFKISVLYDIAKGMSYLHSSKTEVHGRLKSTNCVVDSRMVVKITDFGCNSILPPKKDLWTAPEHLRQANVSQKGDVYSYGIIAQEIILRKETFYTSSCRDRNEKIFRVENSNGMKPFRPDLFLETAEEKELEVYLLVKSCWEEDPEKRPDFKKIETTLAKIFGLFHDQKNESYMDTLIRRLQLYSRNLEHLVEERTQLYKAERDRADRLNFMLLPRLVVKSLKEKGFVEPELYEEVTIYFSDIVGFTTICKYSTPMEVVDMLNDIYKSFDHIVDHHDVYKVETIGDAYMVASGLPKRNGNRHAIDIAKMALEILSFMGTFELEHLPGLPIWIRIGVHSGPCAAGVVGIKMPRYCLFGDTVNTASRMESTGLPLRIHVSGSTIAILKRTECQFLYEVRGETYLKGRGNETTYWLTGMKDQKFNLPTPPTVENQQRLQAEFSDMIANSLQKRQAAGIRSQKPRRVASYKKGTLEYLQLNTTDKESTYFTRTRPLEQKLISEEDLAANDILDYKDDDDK
In words: IHC on cell pellets.

Assay [2] deals with T2, Murine GUCY2C full length on 300.19 cells (mouse, UniProt Q3UWA6 20-1072).
T2 construct: also called mouse GUCY2c
Nature of the assay: IHC on cell pellets.

The target in assay [3] is T3, Human GUCY2C ECD Cleaved (human, UniProt P25092 24-430).
T3 construct: also called human GUCY2c extracellular domain protein (ECD)
In words: SPR, human IgG1.

In assay [4] the target is T3, Human GUCY2C ECD Cleaved. Nature of the assay: SPR, human IgG1 against human GUCY2c ECD.
For assay [5], the target named is T3, Human GUCY2C ECD Cleaved. Nature of the assay: DELFIA ELISA on coated human GUCY2c. A general note: An ELISA detects its analyte on a solid surface through an enzyme-linked reagent.
Another assay deals with T4, GUCY2C_ECD Peptide 19 (human).
T4 construct: also called GUCY2c peptide 19; GUCY2c-ECD peptide number 19
T4 peptide: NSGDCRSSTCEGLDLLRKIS
In words: co-crystal structure, 1.6 A.

For assay [6], the target named is T3, Human GUCY2C ECD Cleaved. In words: direct DELFIA, RT.
The target in assay [7] is T5, Cynomolgus GUCY2C-ECD Cleaved (cynomolgus, UniProt P25092 24-430 (human entry)).
T5 construct: also called CyGUCY2C
T5 chain: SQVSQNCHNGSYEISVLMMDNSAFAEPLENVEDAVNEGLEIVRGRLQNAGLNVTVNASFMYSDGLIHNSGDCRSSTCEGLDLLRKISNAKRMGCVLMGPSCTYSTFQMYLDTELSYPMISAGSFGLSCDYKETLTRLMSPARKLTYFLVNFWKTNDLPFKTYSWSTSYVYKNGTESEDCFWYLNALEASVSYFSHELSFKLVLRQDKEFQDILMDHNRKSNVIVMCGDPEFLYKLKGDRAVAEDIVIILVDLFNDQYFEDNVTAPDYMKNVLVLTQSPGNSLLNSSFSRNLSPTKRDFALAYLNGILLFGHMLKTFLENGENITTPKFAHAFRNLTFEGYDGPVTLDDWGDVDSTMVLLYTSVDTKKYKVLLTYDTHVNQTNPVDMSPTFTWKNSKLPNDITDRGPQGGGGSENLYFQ
In words: direct DELFIA, RT.

Assay [8] concerns the target T3, Human GUCY2C ECD Cleaved. In words: direct DELFIA, 60 C.
Assay [9] concerns the target T5, Cynomolgus GUCY2C-ECD Cleaved. Nature of the assay: direct DELFIA, 60 C.
The target of assay [10] is T6, Human GUCY2c on tumor cells (T84, HT55) (human, UniProt P25092 24-1073). Nature of the assay: cell-based or functional assay.
Assay [11] has as its target T6, Human GUCY2c on tumor cells (T84, HT55). Nature of the assay: cell-based or functional assay. The source holds these as a separate data set.
Assay [12] addresses T7, Human GUCY2C full length (SEQ ID NO: 224), recombinant protein (human, UniProt P25092 24-430, limits assumed).
T7 construct: also called huGUCY2C; biotinylated human GUCY2c
In words: SPR, anti-human IgG capture, 25 C.

The target in the next assay is T8, Human CD3 epsilon-delta (human).
T8 construct: Single-chain epsilon-linker-delta with His6; also called huCD3
T8 chain: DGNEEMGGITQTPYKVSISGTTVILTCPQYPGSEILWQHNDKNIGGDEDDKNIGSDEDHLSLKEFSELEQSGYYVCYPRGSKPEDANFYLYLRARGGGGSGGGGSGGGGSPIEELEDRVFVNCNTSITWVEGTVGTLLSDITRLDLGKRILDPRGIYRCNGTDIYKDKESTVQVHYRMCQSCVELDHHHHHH
In words: SPR, CD3 captured by anti-His, 25 C. In general terms: In SPR one partner is held on a chip, and binding of the other changes the refractive index at the surface.

Here are results for 5 molecules from patent US20230340151A1 (Pfizer, published 2023).

Like-named read-outs stand apart in the source and are kept apart here.

T3 sequence (P25092 other isoform, or with tags, fused parts or gaps): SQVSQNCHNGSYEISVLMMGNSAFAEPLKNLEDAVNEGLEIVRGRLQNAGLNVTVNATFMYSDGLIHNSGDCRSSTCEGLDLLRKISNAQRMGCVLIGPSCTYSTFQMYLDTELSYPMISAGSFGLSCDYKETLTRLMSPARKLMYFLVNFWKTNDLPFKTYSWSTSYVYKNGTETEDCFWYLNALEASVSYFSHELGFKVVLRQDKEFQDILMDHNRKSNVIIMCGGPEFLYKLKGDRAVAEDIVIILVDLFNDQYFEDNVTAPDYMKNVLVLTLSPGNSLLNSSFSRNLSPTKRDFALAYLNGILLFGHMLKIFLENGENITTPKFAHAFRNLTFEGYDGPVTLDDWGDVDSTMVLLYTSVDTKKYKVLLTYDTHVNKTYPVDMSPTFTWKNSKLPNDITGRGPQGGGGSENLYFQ
T7 sequence (P25092 24-430 F281L limits assumed): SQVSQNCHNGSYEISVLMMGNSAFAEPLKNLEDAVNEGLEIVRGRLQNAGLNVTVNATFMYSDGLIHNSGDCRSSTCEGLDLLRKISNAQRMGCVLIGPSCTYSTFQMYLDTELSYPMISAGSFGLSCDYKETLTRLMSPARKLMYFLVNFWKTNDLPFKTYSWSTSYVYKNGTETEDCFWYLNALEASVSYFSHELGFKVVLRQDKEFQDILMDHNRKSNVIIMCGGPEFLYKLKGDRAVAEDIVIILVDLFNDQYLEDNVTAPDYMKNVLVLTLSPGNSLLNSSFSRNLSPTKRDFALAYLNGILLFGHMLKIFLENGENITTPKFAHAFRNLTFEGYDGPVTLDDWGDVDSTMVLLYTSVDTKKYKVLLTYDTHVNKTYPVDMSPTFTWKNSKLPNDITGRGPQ
T6 sequence (P25092 24-1073 limits assumed): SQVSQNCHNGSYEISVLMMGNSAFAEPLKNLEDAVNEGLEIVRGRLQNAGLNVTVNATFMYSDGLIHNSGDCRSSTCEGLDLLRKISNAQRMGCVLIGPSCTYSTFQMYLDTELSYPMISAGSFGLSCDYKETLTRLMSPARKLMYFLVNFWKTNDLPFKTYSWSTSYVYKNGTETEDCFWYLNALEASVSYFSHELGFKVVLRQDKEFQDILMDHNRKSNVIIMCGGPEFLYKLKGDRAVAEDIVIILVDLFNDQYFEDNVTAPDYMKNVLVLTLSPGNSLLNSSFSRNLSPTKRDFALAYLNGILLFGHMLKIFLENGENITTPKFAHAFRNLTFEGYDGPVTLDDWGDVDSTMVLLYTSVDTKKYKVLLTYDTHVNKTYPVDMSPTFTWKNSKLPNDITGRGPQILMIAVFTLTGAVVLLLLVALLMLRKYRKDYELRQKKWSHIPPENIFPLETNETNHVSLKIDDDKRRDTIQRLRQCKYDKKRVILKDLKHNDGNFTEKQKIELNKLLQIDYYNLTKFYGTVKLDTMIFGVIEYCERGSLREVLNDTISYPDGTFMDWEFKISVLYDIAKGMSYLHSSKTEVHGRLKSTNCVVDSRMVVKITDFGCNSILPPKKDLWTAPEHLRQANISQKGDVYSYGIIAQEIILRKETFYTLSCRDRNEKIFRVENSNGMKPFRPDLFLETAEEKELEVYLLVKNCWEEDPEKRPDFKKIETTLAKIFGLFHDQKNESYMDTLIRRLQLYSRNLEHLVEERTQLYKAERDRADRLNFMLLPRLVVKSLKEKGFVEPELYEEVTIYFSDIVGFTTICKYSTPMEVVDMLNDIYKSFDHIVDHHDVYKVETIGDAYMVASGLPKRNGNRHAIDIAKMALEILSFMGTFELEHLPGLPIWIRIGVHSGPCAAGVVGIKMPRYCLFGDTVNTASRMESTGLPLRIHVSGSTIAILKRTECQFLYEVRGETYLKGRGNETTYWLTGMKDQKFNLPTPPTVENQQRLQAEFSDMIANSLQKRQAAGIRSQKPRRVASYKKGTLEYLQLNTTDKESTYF

B1: 9H3 (antibody)
heavy: QVQLQQPGAELVKPGASVKLSCKASGYTFTSYWMHWVKQRPGQGLEWIGEIKPSNGLTNYIEKFKNKATLTVDKSATTAYMQLSSLTAEDSAVYYCTRTITTTEGYWFFDVWGAGTTVTVSSAKTTPPSVYPLAPGSAAQTNSMVTLGCLVKGYFPEPVTVTWNSGSLSSGVHTFPAVLQSDLYTLSSSVTVPSSTWPSETVTCNVAHPASSTKVDKKIVPRDCGCKPCICTVPEVSSVFIFPPKPKDVLTITLTPKVTCVVVDISKDDPEVQFSWFVDDVEVHTAQTQPREEQFNSTFRSVSELPIMHQDWLNGKEFKCRVNSAAFPAPIEKTISKTKGRPKAPQVYTIPPPKEQMAKDKVSLTCMITDFFPEDITVEWQWNGQPAENYKNTQPIMDTDGSYFVYSKLNVQKSNWEAGNTFTCSVLHEGLHNHHTEKSLSHSPGK
light: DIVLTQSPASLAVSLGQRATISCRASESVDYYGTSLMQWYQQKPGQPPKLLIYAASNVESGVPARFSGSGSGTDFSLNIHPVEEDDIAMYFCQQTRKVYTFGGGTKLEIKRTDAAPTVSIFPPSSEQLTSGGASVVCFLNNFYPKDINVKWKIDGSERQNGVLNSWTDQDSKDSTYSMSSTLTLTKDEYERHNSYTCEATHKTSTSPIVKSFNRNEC
notes: Tested as hybridoma antibody; also called GUCY2C-9H3
In the case of B1, the binding result in assay [1] and in assay [2] was “binds” each time.

B2: GUCY2C-1715 (antibody, human IgG1, V domains shown)
VH: EVQLVESGGGLVQPGGSLRLSCAASGFTFSSYWMHWVRQAPGKGLEWIGEIKPSTKYTNVHEKFKDRFTISVDKAKNSAYLQMNSLRAEDTAVYYCTRTIFTNEGYWFFDVWGQGTLVTVSS
VL: DIQLTQSPSSLSASVGDRVTITCRASESVSIYGSSLMQWYQQKPGKAPKLLIYAASKLASGVPSRFSGSGSGTDFTLTISSLQPEDFATYYCQQTRKAYTFGQGTKLEIK
notes: full human IgG1/kappa
In general, Kd refers to a measure of binding affinity in units of concentration. Usually koff stands for the first-order rate constant of dissociation. As a reminder, the kon is a measure of how fast the partners come together. With B2, the “fold improvement of affinity against the parent antibody (GUCY2C-1640)” value with Human GUCY2C ECD Cleaved [3] was determined as 3.4 fold. For the same molecule, in the assay with Human GUCY2C ECD Cleaved [4], the affinity, expressed as Kd, was 4.07 nM; the koff is 0.0011 s⁻¹; the kon was 272000 M⁻¹ s⁻¹.

B3: GUCY2C-0118, rabbit chimeric IgG version of GUCY2C-0098 (antibody)
heavy: QVQLQQPGAELVKPGASVKLSCKASGYTFTSYWMHWVKQRPGQGLEWIGEIKPSNGLTNYIEKFKNKATLTVDKSATTAYMQLSSLTAEDSAVYYCTRTITTTEGYWFFDVWGAGTTVTVSSGQPKAPSVFPLAPCCGDTPSSTVTLGCLVKGYLPEPVTVTWNSGTLTNGVRTFPSVRQSSGLYSLSSVVSVTSSSQPVTCNVAHPATNTKVDKTVAPSTCSKPTCPPPELLGGPSVFIFPPKPKDTLMISRTPEVTCVVVDVSQDDPEVQFTWYINNEQVRTARPPLREQQFNSTIRVVSTLPIAHQDWLRGKEFKCKVHNKALPAPIEKTISKARGQPLEPKVYTMGPPREELSSRSVSLTCMINGFYPSDISVEWEKNGKAEDNYKTTPAVLDSDGSYFLYSKLSVPTSEWQRGDVFTCSVMHEALHNHYTQKSISRSPGK
light: DIVLTQSPASLAVSLGQRATISCRASESVDYYGTSLMQWYQQKPGQPPKLLIYAASNVESGVPARFSGSGSGTDFSLNIHPVEEDDIAMYFCQQTRKVYTFGGGTKLEIKGDPVAPTVLIFPPAADQVATGTVTIVCVANKYFPDVTVTWEVDGTTQTTGIENSKTPQNSADCTYNLSSTLTLTSTQYNSHKEYTCRVTQGTTSVVQSFNRGDC
notes: also called Rabbit IgG version of clone 9H3
What is called EC50 is the midpoint of the concentration-response curve. Read a high EC50 as a need for much substance. B3 had an EC50 with Human GUCY2C ECD Cleaved [5] of 0.25 µg/mL.

B4: GUCY2C-1608 scFv (scFv)
scFv: EVQLVESGGGLVQPGGSLRLSCAASGFTFSSYWMHWVRQAPGKGLEWIGEIKPSNELTNVHEKFKDRFTISVDKAKNSAYLQMNSLRAEDTAVYYCTRTITTTEGYWFFDVWGQGTLVTVSSGGGGSGGGGSGGGGSGDIQLTQSPSSLSASVGDRVTITCRASESVDYYGSSLLQWYQQKPGKAPKLLIYAASKLASGVPSRFSGSGSGTDFTLTISSLQPEDFATYYCQQTRKAYTFGQGTKLEIKTGSENLYFQ
Take B4: the binding result in the assay with GUCY2C_ECD Peptide 19 is reported as “binds”.

B5: GUCY2C-1478 (bispecific antibody)
chain 1: DIQLTQSPSSLSASVGDRVTITCRASESVDYYGSSLLQWYQQKPGKAPKLLIYAASKLASGVPSRFSGSGSGTDFTLTISSLQPEDFATYYCQQTRKAYTFGQGTKLEIKGGGSGGGGEVQLVESGGGLVQPGGSLRLSCAASGFTFSDYYMTWVRQAPGKGLEWVAFIRNQARGYTSDHNPSVKGRFTISRDNAKNSLYLQMNSLRAEDTAVYYCARDRPSYYVLDYWGQGTTVTVSSGCPPCPAPEAAGAPSVFLFPPKPKDTLMISRTPEVTCVVVDVSHEDPEVKFNWYVDGVEVHNAKTKPREEQYNSTYRVVSVLTVLHQDWLNGKEYKCKVSNKALPAPIEKTISKAKGQPREPQVCTLPPSREEMTKNQVSLWCLVKGFYPSDIAVEWESNGQPENNYKTTPPVLDSDGSFFLYSKLTVDKSRWQQGNVFSCSVMHEALHNHYTQKSLSLSPG
chain 2: DIQMTQSPSSLSASVGDRVTITCTSSQSLFNVRSQKNYLAWYQQKPGKAPKLLIYWASTRESGVPSRFSGSGSGTDFTLTISSLQPEDFATYYCKQSYDLFTFGGGTKVEIKGGGGSGGGGEVQLVESGGGLVQPGGSLRLSCAASGYTFTSYWMHWVRQAPGKGLEWIGEIKPSNGLTNVHEKFKNRFTISVDKAKNSAYLQMNSLRAEDTAVYYCTRTITTTEGYWFFDVWGQGTLVTVSSGCPPCPAPEAAGAPSVFLFPPKPKDTLMISRTPEVTCVVVDVSHEDPEVKFNWYVDGVEVHNAKTKPREEQYNSTYRVVSVLTVLHQDWLNGKEYKCKVSNKALPAPIEKTISKAKGQPREPQVYTLPPCREEMTKNQVSLSCAVKGFYPSDIAVEWESNGQPENNYKTTPPVLDSDGSFFLVSKLTVDKSRWQQGNVFSCSVMHEALHNHYTQKSLSLSPG
notes: CD3-0006
As for B5, the EC50 came to 4.39 nM with Human GUCY2C ECD Cleaved [6], 4.9 nM in assay [7], 19.2 nM with Human GUCY2C ECD Cleaved [8] and 15.7 nM in assay [9]. For the same molecule, the “T84 tumor cell EC50 (T cell cytotoxicity, E:T 5:1)” value in assay [10] and in [11] was 0.24 nM each time. Moreover, the Kd in [12] amounted to 3.69 nM; with Human CD3 epsilon-delta, 26.9 nM. Further, the results for the koff (in assay [12]; in the assay with Human CD3 epsilon-delta) were 0.000434 s⁻¹ and 0.00956 s⁻¹, respectively. Besides, the kon in assay [12] turned out to be 118000 M⁻¹ s⁻¹; with Human CD3 epsilon-delta, 355000 M⁻¹ s⁻¹.
